Experimental data published in patent US20100227805A1 (RAPPAPORT FAMILY INSTITUTE FOR RESEARCH IN THE MEDICAL …, published 2010).

Experiments:
[1] = molecular target: T1, human RANTES (CCL5) (human, UniProt P13501 24-91); test: direct ELISA, chemokine coated at 10 ng/well, fusion at 1 µg/well
T1 construct: Bought recombinant chemokine; also called human CCL5
T1 sequence (looked up): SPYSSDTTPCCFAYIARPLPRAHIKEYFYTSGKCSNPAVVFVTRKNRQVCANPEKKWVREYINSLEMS
Protocol: (§1) The binding specificity of the murine CCR5-IgG soluble receptor to various commercially available human recombinant chemokines (R&D Systems, Minneapolis, N. Mex.) MIP-1α (CCL3), MIP-1β (CCL4) and RANTES as well as the murine recombinant chemokines (R&D Systems, Minneapolis, N. Mex.) MIP-1α (CCL3) and ITAC was determined by direct ELISA as follows: 96-well ELISA plates (Nunc, Roskilde, Denmark) were coated with 10 ng/well of human CCL3, CCL4, CCL5, as well as murine CCL3 or ITAC, and blocked with 1% BSA in PBS. Wells were washed and incubated with 1 μg/well CCR5(EC2)-IgG overnight. Wells were washed and the presence of CCR5(EC2)-IgG was detected with goat anti mouse IgG-HRP antibody (Jackson ImmunoResearch lot no. 58734). Results are shown as O.D. reading at 450 nm.

[2] = molecular target: T2, human MIP-1β (CCL4) (human, UniProt P13236 24-92); test: as above
T2 construct: Bought recombinant chemokine; also called human CCL4
T2 sequence (looked up): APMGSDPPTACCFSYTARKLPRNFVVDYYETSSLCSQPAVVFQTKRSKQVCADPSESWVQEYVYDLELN
Protocol: as §1

[3] = molecular target: T3, murine MIP-1α (CCL3) (murine, UniProt P10855 24-92); test: direct ELISA, chemokine coated at 10 ng/well, fusion at 10-1000 ng/ml
T3 construct: Bought recombinant chemokine; also called mCCL3; murine CCL3
T3 sequence (looked up): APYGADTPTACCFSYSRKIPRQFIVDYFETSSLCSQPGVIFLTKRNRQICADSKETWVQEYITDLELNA
Protocol: (§2) The binding specificity of the different extracellular domains (EC1, EC2, EC3 and N) of the murine CCR5-IgG fusion proteins to various commercially available murine recombinant […] chemokines (R&D Systems, Minneapolis, N. Mex. including MIP-1α (CCL3), (CCL4) and RANTES (CCL5) was determined by direct ELISA as follows: 96-well ELISA plates (Nunc, Roskilde, Denmark) were coated with 10 ng/well of murine CCL3, CCL4 or […] and blocked with 1% BSA in PBS. Wells were washed and incubated with 10 ng/ml, 100 ng/ml or 1000 ng/ml CCR5-IgG (EC1, EC2, EC3, N) at a concentration overnight. Wells were washed and the presence of CCR5-IgG was detected with goat anti mouse IgG-HRP (Jackson ImmunoResearch lot no. 58734). Results are shown as O.D. reading at 450 nm.

[4] = molecular target: T4, murine RANTES (CCL5) (murine, UniProt P30882 24-91); test: as above
T4 construct: Bought recombinant chemokine; also called mCCL5; murine CCL5
T4 sequence (P30882 24-91 limits assumed): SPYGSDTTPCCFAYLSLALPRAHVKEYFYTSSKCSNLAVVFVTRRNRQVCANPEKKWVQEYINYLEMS
Protocol: as §2

[5] = molecular target: T5, murine MIP-1β (CCL4) (murine, UniProt P14097 24-92); test: as above
T5 construct: Bought recombinant chemokine; also called mCCL4; murine CCL4
T5 sequence (looked up): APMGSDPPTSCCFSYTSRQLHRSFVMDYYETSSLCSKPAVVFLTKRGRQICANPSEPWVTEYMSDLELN
Protocol: as §2

Measured: binding result

B1: mCCR5(EC2)-IgG (Fc fusion)
chain: DAAQPARRARRTKLRSQKEGFHYTCSPHFPHTQYHFWKSFQTLKLEVPRDCGCKPCICTVPEVSSVFIFPPKPKDVLTITLTPKVTCVVVDISKDDPEVQFSWFVDDVEVHTAQTQPREEQFNSTFRSVSELPIMHQDCLNGKEFKCRVNSAAFPAPIEKTISKTKGRPKAPQVYTIPPPKEQMAKDKVSLTCMITDFFPEDITVEWQWNGQPAENYKNTQPIMDTDGSYFVYSKLNVQKSNWEAGNTFTCSVLHEGLHNHHTEKSLSHSPGKGPEQKLISEEDLNSAVDHHHHHH
notes: It may include the vector's Ig-kappa leader and tags; also called murine CCR5(EC2)-IgG; CCR5-Ig(E2)
binds: all assays above
